For the data set, the system named is C[C@@H]1O[C@@H](Oc2ccc([N+](=O)[O-])cc2)[C@H](O)[C@H](O)[C@H]1O. Description: purified protein. The conditions noted are these: pH 6.5, 65 °C, no additives.

In PMC5327507, “Enhancing the thermostability of α-L-rhamnosidase from Aspergillus terreus and the enzymatic conversion of rutin to isoquercitrin by adding sorbitol” (BMC Biotechnology, 2017) one finds Km data, which are given here for 1 substance.

Turning to “α-L-rhamnosidase from A. terreus (Rha; synthetic gene MRha; RASE) (Aspergillus terreus)”, the Km amounted to 481 ± 10 µM.
